Paper PMC3638394 (2013)
Where no end group is shown, it is not given here.

T1: αBExt C-terminal peptide, second binding (Homo sapiens, not fully specified; dimer with one αBExt peptide already bound)
T1 chain: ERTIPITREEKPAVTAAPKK

T2: αBPal C-terminal peptide, second binding (Homo sapiens, not fully specified)
T2 chain: ERTIPITRE

T3: αBPal C-terminal peptide, first binding (Homo sapiens)
T3 chain: ERTIPITRE

T4: αBExt C-terminal peptide, first binding (Homo sapiens)
T4 chain: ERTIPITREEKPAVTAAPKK

B1: αB-crystallin core domain (αBDom) dimer 68-153 (protein)
chain: MRLEKDRFSVNLDVKHFSPEELKVKVLGDVIEVHGKHEERQDEHGFISREFHRKYRIPADVDPLTITSSLSSDGVLTVNGPRKQVS
B2: αB-crystallin core domain (αBDom) 68-153 (protein)
chain: B1 chain
modifications: both subunits bound to αBPal peptide
B3: αB-crystallin core domain (αBDom) 68-153 (protein)
chain: B1 chain
modifications: both subunits bound to αBExt peptide
B4: αB-crystallin core domain (αBDom) 68-153 (protein)
chain: B1 chain

Legend:
Assay in all cases: ion-mobility native mass spectrometry titration
[1] = biological target: T1, αBExt C-terminal peptide, second binding
[2] = biological target: T2, αBPal C-terminal peptide, second binding
[3] = biological target: B4
[4] = biological target: T3, αBPal C-terminal peptide, first binding
[5] = biological target: the molecule itself
[6] = biological target: T4, αBExt C-terminal peptide, first binding

Binder: B1
Kd [1]: 300 µM
Kd [2]: 150 µM

Binder: B2
Kd [3]: 4 µM

Binder: B3
Kd [3]: 6 µM

Binder: B4
Kd [4]: ~70 µM
Kd [5]: ~2000 nM
Kd [6]: ~70 µM
